Laboratory results taken from US6432702 (NEW YORK UNIVERSITY, dated 2002).

What was measured:
[1] = biological target: T1, FGF receptor-1 (flg) (UniProt P16092 22-822, limits assumed); test: Scatchard analysis, 125I-labeled ligand on CHO 4-1 cells expressing FGF receptor-1, 4 C
T1 construct: whole, on cells; also called flg receptor; CHO 4-1 cells
Method: Scatchard analysis of the binding of K-FGF and K-FGF-140 was performed on CHO 4-1 cells expressing the FGF receptor-1 as follows. Cells at 4.8×10^5/35mm dish were incubated at 4° C. with DMEM containing 0.15% gelatin, […].
In FIG. 7, Scatchard analysis of binding to high affinity receptors gave a straight line, indicating a single class of binding sites.

[2] = biological target: T1, FGF receptor-1 (flg); test: competition with 125I-bFGF on CHO 4-1 cells expressing FGF receptor-1
[3] = biological target: T2, FGF receptor-2 (bek) (UniProt P21803 22-821, limits assumed); test: competition with 125I-bFGF on CHO 3-7.5 cells expressing FGF receptor-2
T2 construct: whole, on cells; also called CHO 3-7.5 cells
T2 sequence (P21803 22-821 limits assumed): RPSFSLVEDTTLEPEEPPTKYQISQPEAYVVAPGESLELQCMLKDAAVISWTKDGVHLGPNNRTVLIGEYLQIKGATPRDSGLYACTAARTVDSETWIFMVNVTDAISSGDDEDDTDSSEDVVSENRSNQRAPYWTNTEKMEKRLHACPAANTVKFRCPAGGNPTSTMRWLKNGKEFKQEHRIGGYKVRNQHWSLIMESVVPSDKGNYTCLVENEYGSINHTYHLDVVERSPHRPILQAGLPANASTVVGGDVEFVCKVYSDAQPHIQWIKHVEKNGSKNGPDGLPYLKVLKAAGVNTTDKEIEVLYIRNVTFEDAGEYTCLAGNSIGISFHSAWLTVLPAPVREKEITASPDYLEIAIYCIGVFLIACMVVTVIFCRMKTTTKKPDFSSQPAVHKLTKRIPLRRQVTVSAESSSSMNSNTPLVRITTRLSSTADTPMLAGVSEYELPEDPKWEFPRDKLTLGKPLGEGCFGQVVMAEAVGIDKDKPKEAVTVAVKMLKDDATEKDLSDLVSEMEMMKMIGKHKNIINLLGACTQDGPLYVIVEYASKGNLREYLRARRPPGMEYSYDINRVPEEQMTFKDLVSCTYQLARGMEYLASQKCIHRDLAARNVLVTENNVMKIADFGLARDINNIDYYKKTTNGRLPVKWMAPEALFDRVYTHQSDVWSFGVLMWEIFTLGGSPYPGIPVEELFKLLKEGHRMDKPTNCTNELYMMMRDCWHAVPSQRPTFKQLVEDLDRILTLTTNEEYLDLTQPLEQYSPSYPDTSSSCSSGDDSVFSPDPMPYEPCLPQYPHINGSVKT

T1 sequence (P16092 22-822 limits assumed): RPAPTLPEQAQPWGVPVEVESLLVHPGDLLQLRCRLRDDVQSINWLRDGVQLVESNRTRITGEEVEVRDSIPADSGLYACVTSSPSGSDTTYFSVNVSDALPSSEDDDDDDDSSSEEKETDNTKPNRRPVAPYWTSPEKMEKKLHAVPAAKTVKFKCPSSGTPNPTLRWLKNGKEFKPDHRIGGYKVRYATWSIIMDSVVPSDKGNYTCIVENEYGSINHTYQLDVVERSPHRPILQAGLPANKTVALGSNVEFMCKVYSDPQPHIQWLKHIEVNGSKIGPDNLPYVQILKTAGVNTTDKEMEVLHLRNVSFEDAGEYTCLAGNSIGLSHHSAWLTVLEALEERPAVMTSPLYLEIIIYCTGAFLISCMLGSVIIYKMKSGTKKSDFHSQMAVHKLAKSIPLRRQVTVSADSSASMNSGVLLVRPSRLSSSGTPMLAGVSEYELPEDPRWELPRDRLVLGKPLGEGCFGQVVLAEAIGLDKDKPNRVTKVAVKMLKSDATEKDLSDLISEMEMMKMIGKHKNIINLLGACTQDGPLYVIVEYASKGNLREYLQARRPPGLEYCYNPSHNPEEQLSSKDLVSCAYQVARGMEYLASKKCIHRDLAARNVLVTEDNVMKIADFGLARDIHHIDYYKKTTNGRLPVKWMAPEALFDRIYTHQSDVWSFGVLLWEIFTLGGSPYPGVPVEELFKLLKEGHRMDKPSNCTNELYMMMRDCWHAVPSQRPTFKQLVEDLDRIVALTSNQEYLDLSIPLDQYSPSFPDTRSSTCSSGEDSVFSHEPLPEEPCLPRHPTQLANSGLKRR

Row | Binder | Kd [1] [nM] | fold more competitor needed than bFGF or K-FGF-140 [2] [fold] | fold higher affinity than full-length K-FGF [1] [fold] | fold higher affinity than bFGF or full-length K-FGF [3] [fold]
1 | K-FGF (full-length mature human growth factor) (ligand, also called full-length K-FGF; FGF-4) APTAPNGTLEAELERRWESLVALSLARLPVAAQPKEAAVQSGAGDYLLGIKRLRRLYCNVGIGFHLQALPDGRIGGAHADTRDSLLELSPVERGVVSIFGVASRFFVAMSSKGKLYGSPFFTDECTFKEILLPNNYNAYESYKYPGMFIALSKNGKTKKGNRVSPTMKVTHFLPRL | ~0.285 | ~8 | – | –
2 | K-FGF-140 (truncated K-FGF) (ligand, Unglycosylated, 140 residues, about 14,000 Daltons; also called truncated mammalian growth factor; truncated protein) AAVQSGAGDYLLGIKRLRRLYCNVGIGFHLQALPDGRIGGAHADTRDSLLELSPVERGVVSIFGVASRFFVAMSSKGKLYGSPFFTDECTFKEILLPNNYNAYESYKYPGMFIALSKNGKTKKGNRVSPTMKVTHFLPRL | ~0.095 | – | ~3 | ~3
